± gives the standard deviation.

Results on 21 sequences are retold here after the supplement of paper PMC10567573.

A short description of the series: protein stability index of a GFP-peptide fusion (GPS, HEK-293T) (PSI 1-6); higher = more stable. Particulars: c terminus: a fixed tail appended.
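Also: 24-mer peptide tiles fused after GFP, lentivirally expressed, FACS-sorted into six equal bins by GFP/DsRed ratio, decoded by Illumina sequencing, PSI is the read-weighted mean bin number.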

On to YLLTVMAAAAKAFKHPSIRNPVSL [ADAMTS4], for which the protein stability index by setting is: (treatment: DMSO) 2.56 ± 0.62; (treatment: MLN4924 1 uM, 8 h) 2.15 ± 0.32.

Take YMDRFTVAGVLPDIEQFFNIGDSS [SPNS1]: the protein stability index by setting is: (treatment: DMSO) 2.71 ± 0.34; (treatment: MLN4924 1 uM, 8 h) 2.99 ± 0.18.

Turning to YMSQVLEKEMKAQEQRLGIRISMS [GMPPB], the protein stability index reads like this: (treatment: DMSO) 2.38 ± 0.094; (treatment: MLN4924 1 uM, 8 h) 2.74 ± 0.42.

Take YNDVMQENYETVISLALFVLPKPK [ZNF75A]: the protein stability index is, setting by setting: (treatment: DMSO) 2.82 ± 0.64; (treatment: MLN4924 1 uM, 8 h) 2.71 ± 0.84.

Turning to YNILKTCRGHTLERSVFSERTEES [CARM1], the protein stability index reads like this: (treatment: DMSO) 2.56 ± 0.5; (treatment: MLN4924 1 uM, 8 h) 2.56 ± 0.6.

YNLTILDCLQGIRKGLQHGFFDFE [CDC14A] registered a protein stability index (treatment: DMSO) of 2.68 ± 1.1 and a protein stability index (treatment: MLN4924 1 uM, 8 h) of 2.71 ± 0.89.

As for YNNDIDYYAKRNALRAAEVWMDDF [GALNT9], the protein stability index worked out at 2.96 ± 0.076 (treatment: DMSO) and 2.99 ± 0.32 (treatment: MLN4924 1 uM, 8 h).

With YQDKIRPYIQLPSHSNITGIVEVI [TRIB1], the protein stability index is, setting by setting: (treatment: DMSO) 2.39 ± 0.3; (treatment: MLN4924 1 uM, 8 h) 2.17 ± 0.094.

YQEASNLEQFVTRFLLKETLNQLQ [NECAB1]: the protein stability index (treatment: DMSO) turned out to be 2.66 ± 0.81 and the protein stability index (treatment: MLN4924 1 uM, 8 h) turned out to be 2.44 ± 0.69.

YRFLLYGLHEGKRLGPLSAEGTTG [TNXB] showed a protein stability index (treatment: DMSO) of 2.8 ± 0.62 and a protein stability index (treatment: MLN4924 1 uM, 8 h) of 2.29 ± 0.31.

Consider YRQWHAKIFVENLRRQKSLRLEWE [IQUB], for which the protein stability index was determined as 2.29 ± 0.54 (treatment: DMSO) and 1.87 ± 0.28 (treatment: MLN4924 1 uM, 8 h).

With YRRVNELLLSILNPTRQDESIQRI [ZER1], the protein stability index was 2.46 ± 0.14 (treatment: DMSO) and 2.66 ± 0.53 (treatment: MLN4924 1 uM, 8 h).

On to YSEHFLQEAKLLHWNGRHKPWDFP [GLT8D2], for which the protein stability index came out at 2.17 ± 0.21 (treatment: DMSO) and 2.41 ± 0.36 (treatment: MLN4924 1 uM, 8 h).

For YSFYLFHPLAYGMVGPLAQDPQSP [POMT2], the protein stability index was 2.45 ± 0.7 (treatment: DMSO) and 2.67 ± 0.43 (treatment: MLN4924 1 uM, 8 h).

Regarding YSSNQLHHFFCDIAPVLKLASHHN [OR10K2], the protein stability index is, setting by setting: (treatment: DMSO) 2.59 ± 0.72; (treatment: MLN4924 1 uM, 8 h) 2.17 ± 0.38.

In the case of YSSRTPGTPGTPSYPRTPHTPGTP [MAP2], the protein stability index reads like this: (treatment: DMSO) 4.25 ± 0.26; (treatment: MLN4924 1 uM, 8 h) 4.27 ± 0.2.

Consider YTFHARFGEVRPYFYLGGARGAGP [TRIM35], for which the protein stability index was 2.27 ± 0.083 (treatment: DMSO) and 2.28 ± 0.4 (treatment: MLN4924 1 uM, 8 h).

YVGEPLVCEVQVHGGSLLGKKYNW [GFOD1]: the protein stability index by setting is: (treatment: DMSO) 2.61 ± 0.62; (treatment: MLN4924 1 uM, 8 h) 2.18 ± 0.42.

With YVKVLHHMVKISGGPRISYPLLHE [MAGEA6], the protein stability index (treatment: DMSO) was found to be 2.68 ± 0.52 and the protein stability index (treatment: MLN4924 1 uM, 8 h) was found to be 2.41 ± 0.5.

YVWVPIEQCLPSLENSKYCRFNQD [ATE1]: the protein stability index is, setting by setting: (treatment: DMSO) 2.3 ± 0.4; (treatment: MLN4924 1 uM, 8 h) 2.19 ± 0.12.

In the case of YYTFHFLYFKDKIFNVAIPRFHMA [FBXO3], the protein stability index (treatment: DMSO) came out at 3.06 ± 0.48 and the protein stability index (treatment: MLN4924 1 uM, 8 h) was 2.81 ± 0.2.
